Test results from PMC2034677 (Molecular microbiology, 2002).

Target: the molecule itself
Assay: native gel or EMSA

B1: GST–endoE fusion protein (recombinant bacteriophage K1E endosialidase, wild type) (enzyme, UniProt P49714 1-706, looked up)
chain: MIQRLGSSLVKFKSKIAGAIWRNLDDKLTEVVSLKDFGAKGDGKTNDQDAVNAAMASGKRIDGAGATYKVSSLPDMERFYNTRFVWERLAGQPLYYVSKGFINGELYKITDNPYYNAWPQDKAFVYENVIYAPYMGSDRHGVSRLHVSWVKSGDDGQTWSTPEWLTDMHPDYPTVNYHCMSMGVCRNRLFAMIETRTLAKNELTNCALWDRPMSRSLHLTGGITKAANQRYATIHVPDHGLFVGDFVNFSNSAVTGVSGDMKVATVIDKDNFTVLTPNQQTSDLNNAGKNWHMGTSFHKSPWRKTDLGLIPRVTEVHSFATIDNNGFVMGYHQGDVAPREVGLFYFPDAFNSPSNYVRRQIPSEYEPDAAEPCIKYYDGVLYLITRGTRGDRLGSSLHRSRDIGQTWESLRFPHNVHHTTLPFAKVGDDLIMFGSERAENEWEAGAPDDRYKASYPRTFYARLNVNNWNADDIEWVNITDQIYQGDIVNSSVGVGSVVVKDSFIYYIFGGENHFNPMTYGDNKDKDPFKGHGHPTDIYCYKMQIANDNRVSRKFTYGATPGQAIPTFMGTDGIRNIPAPLYFSDNIVTEDTKVGHLTLKASTSANIRSEMQMEGEYGFIGKSVPKDKPTGQRLIICGGEGTSSSSGAQITLHGSNSSNAKRITYNGNEHLFQGAPIMPAVDNQFAAGGPSNRFTTIYLGSDPVTTS
For B1, the “stoichiometry N” value was 3.
